Patent US20110059095A1 (Regeneron, published 2011)
Substitutions are numbered along the chain they refer to. Where no end group is shown, it is not given here. The star is where a group is joined. Biotin = O=C1N[C@H]2[C@H](CS[C@H]2CCCCC(=O)*)N1

B1: H4H584P (antibody, human IgG4, V domains shown)
VH: QVQLVESGGGVVQPGRSLRLSCVASGFTFSRYGMHWVRQAPGKGLEWVVVISYDGINKYYADSVKGRFTISRDNSKNTVYLQMNSLRAEDTAVYYCAKGDFWSGYFDYWGQGTLVTVSS
VL: DIVMTQTPLSSPVTLGQPASISCRSSQSLVHSDGNTYLSWLHQRPGQPPRLLIYKISNRFSGVPDRFSGSGAGTDFTLQISRVEAEDVGIYYCMQATQFPTFGGGTKVEIK
notes: also called H1H584P variable regions
B2: H4H579P (antibody, human IgG4, V domains shown)
VH: B1 VH with V48L, V49I, A92G
VL: B1 VL with A96G
notes: also called H1H579P variable regions
B3: H4H585P (antibody, human IgG4, V domains shown)
VH: B1 VH with V48L, V49I
VL: B1 VL with A96G
notes: also called H1H585P variable regions
B4: H4H581P (antibody, human IgG4, V domains shown)
VH: B1 VH with M34I, V49I
VL: B1 VL
notes: also called mAb H4H581P; H1H581P variable regions
B5: H4H583P (antibody, human IgG4, V domains shown)
VH: QVQLVESGGGVVQPGMSLRLSCTASGFTFRRYGMHWVRQAPGKGLEWVAVIWYDGSNKYYADSVKGRFTITRDNSKNTLYLQMNSLRAEDTAIYFCASEITIGDWFDPRGQGTLVTVSS
VL: AIQMTQSPSSLSASVGDRVTITCRASQGIRNDLGWFQQKPGKVPKLLIYAASTLHSGVPSRFSGSGFGTDFTLTISSLQPEDFATYYCLQDFNYPLTFGGGTKVEIK
notes: also called H1H583P variable regions
B6: H4H588N (antibody, human IgG4, V domains shown)
VH: EVQLLESGGGLVQPGGSLRLSCAASGFTFSSYAMTWVRQAPGKGLYWVSAISGGRGSAYYADSVKGRFTISRDNSKNTLYLQMNSLRAEDTAVYYCAKEGDSGYDLAYWGRGTLVTVSS
VL: DIQMTQSPSSLSASVGDRVTITCRARQGISNNLAWLQQKPGKAPKSLIYAASSLQSGIPSKFSGSGSGTYFTLTISSLQPEDFATYYCQQYKSSPLTFGGGTKVEIK
notes: also called H2M588N variable regions

Each binder was assayed against T1, full length human PAR-2 (human, UniProt P55085 26-397) (assay: MSD cell binding).
T1 construct: overexpressed on HEK293-derived 293/D9 cells; also called 293/D9/hPAR-2rec cells
T1 sequence (P55085 26-397 G138A limits assumed): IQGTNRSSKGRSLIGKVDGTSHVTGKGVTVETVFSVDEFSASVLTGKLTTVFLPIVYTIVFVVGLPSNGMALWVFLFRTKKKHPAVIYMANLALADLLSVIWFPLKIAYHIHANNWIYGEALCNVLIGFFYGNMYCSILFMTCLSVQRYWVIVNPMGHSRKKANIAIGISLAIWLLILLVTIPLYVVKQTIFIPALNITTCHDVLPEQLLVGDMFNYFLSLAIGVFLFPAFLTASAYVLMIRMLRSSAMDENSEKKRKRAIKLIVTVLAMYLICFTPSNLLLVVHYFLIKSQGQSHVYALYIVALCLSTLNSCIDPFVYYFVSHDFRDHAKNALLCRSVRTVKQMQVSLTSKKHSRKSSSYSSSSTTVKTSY
Experimental: HEK293 cells were transfected with an NF-κB-luciferase-IRES-eGFP reporter plasmid. […] A clonal cell line, named D9, having low background levels of luciferase activity and high levels of eGFP when induced with IL-1β was made by a series of successive sorts of cell populations using flow cytometry. The 293/D9 cell line was then separately transfected with human PAR-2 or mouse PAR-2 to create the stable cell lines 293/D9/h PAR-2rec and 293/D9/m PAR-2rec, respectively.
Cells were plated on MSD high-bind 96 well plates at a density of 4×10⁴ cells/well in PBS and incubated for one hour at room temperature. Cells were then blocked in PBS with 2% BSA and incubated at room temperature for one hour. Anti-PAR-2 antibodies (ranging from 100 nM to 0.098 nM) were serially diluted two-fold in PBS with 0.5% BSA and incubated with the cells for one hour at room temperature followed by washing in PBS with 0.5% BSA. Sulfo-tagged anti-human IgG antibody (MSD) at a concentration of 0.1 μg/ml was then added to the cell/antibody mixture and incubated at room temperature for an additional hour. After another wash, a 1× non-surfactant containing read buffer was added and electro-chemiluminescent signal was read on the MSD Sector Imager. Signal of antibody binding to 293/D9 cells was subtracted from signal to 293/D9/hPAR-2rec or 293/D9/mPAR-2rec cells. Subtracted data were analyzed using a sigmoidal dose-response model in GraphPad Prism and EC₅₀ and Bₘₐₓ values were reported (Table 18). EC₅₀ values are defined as the antibody concentration required to achieve 50% maximal binding (Bₘₐₓ) to cells.

Row | Binder | Bmax [MSD Unit] | EC50 [nM]
1 | B1 | 26000 | 1.45
2 | B2 | 25000 | 1.86
3 | B3 | 22500 | 1.95
4 | B4 | 28200 | 0.652
5 | B5 | 13300 | 2.12
6 | B6 | 27500 | 5.95

Molecular target: T2, Peptide A (human PAR-2), unbiotinylated (Human)
T2 construct: also called Peptide A No Biotin
T2 peptide: GTNRSSKGRSLIGKVDGT
Experiment: SPR, antibody captured
Experimental: (§1) Equilibrium dissociation constants (KD values) for antigen binding to selected purified PAR-2 antibodies were determined by surface kinetics using a real-time surface plasmon resonance biosensor assay. Antibody was captured on either a rabbit anti-mouse IgG polyclonal antibody (GE Healthcare, Piscataway, N.J.) surface or a goat anti-human IgG polyclonal antibody (Jackson Immuno Research Lab, West Grove, Pa.) surface created through direct amine chemical coupling to a BIACORE™ CM5 sensor chip to form a captured antibody surface. […] Antigen-antibody binding and dissociation were monitored in real time at room temperature. Kinetic analysis was performed to calculate KD and half-life of antigen/antibody complex dissociation (Table 10). For those antibodies where no T_{1/2} value is shown, steady state analysis was used to calculate the KD value. NB: no binding observed under current experimental conditions. ND: not determined.

Row | Binder | Kd [nM] | T1/2 [min]
7 | B1 | 22 | 0.73
8 | B2 | 15 | 4.1
9 | B3 | 8.78 | 3.7
10 | B4 | 9.44 | 1.4
11 | B5 | 37.1 | 0.37
12 | B6 | 4.95 | 25.1

Each binder was assayed against T3, Peptide F (monkey PAR-2), N-terminal biotinylated (Monkey (Macaca mulatta), N-terminal biotin via G4S linker) (assay: SPR, antibody captured).
T3 construct: also called Peptide F N-Term
T3 sequence (peptide, as listed by the source): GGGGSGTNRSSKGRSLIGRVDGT
Experimental: as §1

Row | Binder | Kd [nM] | T1/2 [min]
13 | B1 | 93.3 | 0.23
14 | B2 | 49.4 | 2
15 | B3 | 46.2 | 2
16 | B4 | 36.6 | 0.53
17 | B5 | 112 | 0.47
18 | B6 | 10.8 | 20

Each binder was assayed against T1, full length human PAR-2 (assay: cell-based or functional assay).

Row | Binder | IC50, NF-kB-luciferase, 20 nM Trypsin [nM]
19 | B1 | 5.6
20 | B2 | 4.1
21 | B3 | 8.9
22 | B4 | 1.1
23 | B5 | 14
24 | B6 | 16.9

Molecular target: T2, Peptide A (human PAR-2), unbiotinylated
Experiment: peptide ELISA titration
Experimental: (§2) Anti-PAR-2 antibodies were tested for their ability to bind to the PAR-2 peptides. Various PAR-2 Peptides (Table 3) were coated onto 96-well plates at a concentration of 2 μg/ml and incubated overnight followed by blocking in a suitable blocking agent for one hour. […] Purified anti-PAR-2 antibodies were added to the plate coated with PAR-2 peptides to a final concentration ranging from 0.2 to 2.0 μg/ml and incubated for one hour at room temperature. Detection of bound antibodies was determined with Horse-Radish Peroxidase (HRP) conjugated anti-mouse or human IgG (Jackson Immuno Research Lab, West Grove, Pa.) and developed by standard colorimetric response using tetramethylbenzidine (TMB) substrate. Absorbance was read at OD₄₅₀ for 0.1 second.
(§3) In another experiment, selected anti-PAR-2 antibodies cloned onto human IgG4 were tested for binding to unbiotinylated and biotinylated forms of PAR-2 peptides (Peptides A, E, F and G; as described above). […] Absorbance values at 450 nm were analyzed using a sigmoidal dose-response model in GraphPad Prism (GraphPad Software, Inc., La Jolla, Calif.) and EC₅₀ values were reported (Table 9). EC₅₀ values are defined as the antibody concentration required to achieve 50% maximal binding to PAR-2 peptide.

Row | Binder | EC50 [nM]
25 | B1 | 0.012
26 | B2 | 0.038
27 | B3 | 0.017
28 | B4 | 0.012
29 | B5 | 0.008
30 | B6 | 0.01

Molecular target: T4, Peptide A (human PAR-2), N-terminal biotinylated (Human, N-terminal biotin via G4S linker)
T4 construct: also called Peptide A N-Term
T4 peptide: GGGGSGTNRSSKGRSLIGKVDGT
Experiment: peptide ELISA titration
Experimental: as §2, §3

Row | Binder | EC50 [nM]
31 | B1 | 0.019
32 | B2 | 0.077
33 | B3 | 0.026
34 | B4 | 0.02
35 | B5 | 0.015
36 | B6 | 0.019

The binders below were run against T5, Peptide A (human PAR-2), C-terminal biotinylated (Human, C-terminal biotin via G4S linker) (assay: peptide ELISA titration).
T5 construct: also called Peptide A C-Term
Experimental: as §2, §3

Row | Binder | EC50 [nM]
37 | B1 | 0.015
38 | B2 | 0.076
39 | B3 | 0.021
40 | B4 | 0.028
41 | B5 | 0.018
42 | B6 | 0.016

These binders were tested against T3, Peptide F (monkey PAR-2), N-terminal … (assay: peptide ELISA titration).
Experimental: as §2, §3

Row | Binder | EC50 [nM]
43 | B1 | 0.012
44 | B2 | 0.061
45 | B3 | 0.017
46 | B4 | 0.02
47 | B5 | 0.013
48 | B6 | 0.012

Each binder was assayed against T5, Peptide A (human PAR-2), C-terminal … (assay: SPR, peptide immobilized).
Experimental: (§4) In another series of experiments, equilibrium dissociation constants (KD values) for purified antibody binding to selected biotinylated and unbiotinylated forms of PAR-2 peptides were determined by surface kinetics using a real-time surface plasmon resonance biosensor assay. Neutravidin (Pierce, Rockford, Ill.) was covalently coupled to the surface of a Biacore™ C1 chip or CM5 chip using amine coupling chemistry. Biotinylated (N-Term or C-Term) PAR-2 peptides (Peptides A and B) were immobilized on the surface via the high affinity binding interaction between biotin and the amine coupled Neutravidin.
(§5) In a first experiment using this format, varying concentrations (ranging from 5 to 100 μg/ml) of purified antibody were injected at a rate of 50 μl/min over a surface coated with immobilized peptide at low-density (<1RU) for 300 seconds. Antibody-peptide binding and dissociation was monitored in real time 25° C.

Row | Binder | Kd [nM] | T1/2 [min]
49 | B1 | 0.688 | 55
50 | B2 | 0.143 | 479
51 | B3 | 0.151 | 493
52 | B4 | 0.237 | 134
53 | B5 | 0.898 | 34
54 | B6 | 0.517 | 141

Molecular target: T6, Peptide B (human PAR-2), C-terminal biotinylated (Human, not fully specified)
T6 construct: also called Peptide B C-Term
T6 peptide: SLIGKVDGTSHVTGGGGGS-biotin
Experiment: SPR, peptide immobilized
Experimental: as §4, §5

Row | Binder | Kd [nM] | T1/2 [min] | binding result
55 | B1 | 1.66 | 15 | 
56 | B2 | 0.453 | 96 | 
57 | B3 | 0.376 | 123 | 
58 | B4 | 0.346 | 49 | 
59 | B5 |  |  | no binding
60 | B6 | 1.03 | 70 | 

Molecular target: T4, Peptide A (human PAR-2), N-terminal …
Experiment: SPR, peptide immobilized

Row | Binder | Kd [nM] | T1/2 [min]
61 | B1 | 0.525 | 43
62 | B2 | 1.61 | 46
63 | B3 | 1.69 | 48
64 | B4 | 0.498 | 41
65 | B5 | 0.412 | 46
66 | B6 | 1.05 | 189

Molecular target: T7, Peptide B (human PAR-2), N-terminal biotinylated (Human)
T7 construct: also called Peptide B N-Term
T7 peptide: Biotin-GGGGSSLIGKVDGTSHVTG
Experiment: SPR, peptide immobilized

Row | Binder | Kd [nM] | T1/2 [min] | binding result
67 | B1 | 3.2 | 30 | 
68 | B2 | 5.44 | 55 | 
69 | B3 | 5.41 | 63 | 
70 | B4 | 2.72 | 38 | 
71 | B5 |  |  | no binding
72 | B6 | 0.0272 | > 1160 | 

The binders below were run against T3, Peptide F (monkey PAR-2), N-terminal … (assay: SPR, peptide immobilized).

Row | Binder | Kd [nM] | T1/2 [min]
73 | B1 | 0.565 | 40
74 | B2 | 0.796 | 70
75 | B3 | 0.899 | 66
76 | B4 | 0.272 | 78
77 | B5 | 0.291 | 73
78 | B6 | 1.81 | 94
